Data from paper PMC5595889.

Biological target: mouse importin α1 lacking the N-terminal importin-β-binding domain (ΔIBB-importin α1) (mouse)
Assay: ITC

influenza NLS2-K peptide (198-[…]-216)
Kd: 72.4 µM
